Paper PMC5913134, “The IL-33-PIN1-IRAK-M axis is critical for type 2 immunity in IL-33-induced allergic airway inflammation” (Nature Communications, 2018)
Where no end group is shown, it is not given here. [ ]: non-standard residue; d: D form. pS = N[C@@H](COP(=O)(O)O)C(=O)O

Target: T1, 15N-labeled PIN1 WW domain (PIN1 residues 1-50) (UniProt Q13526 1-50)
T1 construct: PIN1 residues 1-50 (WW domain); The methods describe a pET28 His6-TEV construct for PIN1; also called 15N-PIN1-WW; source: expressed and purified, 15N-labeled
T1 sequence (Q13526 1-50): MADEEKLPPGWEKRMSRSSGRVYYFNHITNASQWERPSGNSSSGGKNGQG
Test: NMR titration; 1H-15N HSQC of 15N-PIN1-WW at constant concentration, peptide serially diluted (reverse titration), 25 °C, 600 MHz; fit to a simple bimolecular model; apparent
Conditions: both partners purified

B1: IRAK-M-pS110 peptide (IRAK-M residues 103-124 with Ser110 phosphorylated) (peptide)
peptide: TNYGAVL[pS]PSEKSYQEGGFPNI
notes: IRAK-M (IRAK3) residues 103-124; also called IRAK-M phosphopeptide; pIRAK-M-pS110; source: synthetic peptide (Tufts University Core Facility)
  Kd: 60.7 µM
